Reference: patent US20170355757A1 (Regeneron, published 2017)

Experiments:
Human C5 [1] = biological target: T1, Human C5 (human, UniProt P01031 19-1676); test: SPR, mAb captured by anti-hFc, 37C
T1 construct: The natural protein has a beta and an alpha chain; also called complement factor 5; complement component 5
Method: (§1) Equilibrium dissociation constants (KD values) for C5 binding to purified anti-C5 antibodies were determined using a real-time surface plasmon resonance biosensor assay on a Biacore T200 instrument. The Biacore sensor surface was derivatized by amine coupling with a monoclonal mouse anti-human Fc antibody (GE Healthcare, # BR-1008-39) to capture anti-C5 antibodies expressed with human Fc constant regions. Biacore binding studies were conducted in HBST running buffer (0.01M HEPES pH 7.4, 0.15M NaCl, 3 mM EDTA, 0.05% v/v Surfactant P20).
(§2) Human C5 was obtained from a commercial source (EMD). Other C5 reagents were expressed with a C-terminal myc-myc-hexahistidine tag (subsequently referred to as C5-mmh). […] Association of all the C5 reagents to each of the captured monoclonal antibodies was monitored for 3 minutes and their dissociation in HBST running buffer was monitored for 8 minutes. All the binding kinetics experiments were performed at either 25° C. or 37° C. Kinetic association (kₐ) and dissociation (kd) rate constants were determined by fitting the real-time sensorgrams to a 1:1 binding model using Scrubber 2.0c curve fitting software. Binding dissociation equilibrium constants (KD) and dissociative half-lives (t %) were calculated from the kinetic rate constants as: KD (M)=kd/kₐ and t_{1/2} (min)=In2/(60×kd)

monkey C5-mmh = biological target: T2, monkey C5-mmh (monkey, UniProt P01031 19-1676 (human entry), limits assumed); test: SPR, mAb captured by anti-hFc, 25C
T2 construct: Expressed with a C-terminal myc-myc-hexahistidine tag
T2 chain: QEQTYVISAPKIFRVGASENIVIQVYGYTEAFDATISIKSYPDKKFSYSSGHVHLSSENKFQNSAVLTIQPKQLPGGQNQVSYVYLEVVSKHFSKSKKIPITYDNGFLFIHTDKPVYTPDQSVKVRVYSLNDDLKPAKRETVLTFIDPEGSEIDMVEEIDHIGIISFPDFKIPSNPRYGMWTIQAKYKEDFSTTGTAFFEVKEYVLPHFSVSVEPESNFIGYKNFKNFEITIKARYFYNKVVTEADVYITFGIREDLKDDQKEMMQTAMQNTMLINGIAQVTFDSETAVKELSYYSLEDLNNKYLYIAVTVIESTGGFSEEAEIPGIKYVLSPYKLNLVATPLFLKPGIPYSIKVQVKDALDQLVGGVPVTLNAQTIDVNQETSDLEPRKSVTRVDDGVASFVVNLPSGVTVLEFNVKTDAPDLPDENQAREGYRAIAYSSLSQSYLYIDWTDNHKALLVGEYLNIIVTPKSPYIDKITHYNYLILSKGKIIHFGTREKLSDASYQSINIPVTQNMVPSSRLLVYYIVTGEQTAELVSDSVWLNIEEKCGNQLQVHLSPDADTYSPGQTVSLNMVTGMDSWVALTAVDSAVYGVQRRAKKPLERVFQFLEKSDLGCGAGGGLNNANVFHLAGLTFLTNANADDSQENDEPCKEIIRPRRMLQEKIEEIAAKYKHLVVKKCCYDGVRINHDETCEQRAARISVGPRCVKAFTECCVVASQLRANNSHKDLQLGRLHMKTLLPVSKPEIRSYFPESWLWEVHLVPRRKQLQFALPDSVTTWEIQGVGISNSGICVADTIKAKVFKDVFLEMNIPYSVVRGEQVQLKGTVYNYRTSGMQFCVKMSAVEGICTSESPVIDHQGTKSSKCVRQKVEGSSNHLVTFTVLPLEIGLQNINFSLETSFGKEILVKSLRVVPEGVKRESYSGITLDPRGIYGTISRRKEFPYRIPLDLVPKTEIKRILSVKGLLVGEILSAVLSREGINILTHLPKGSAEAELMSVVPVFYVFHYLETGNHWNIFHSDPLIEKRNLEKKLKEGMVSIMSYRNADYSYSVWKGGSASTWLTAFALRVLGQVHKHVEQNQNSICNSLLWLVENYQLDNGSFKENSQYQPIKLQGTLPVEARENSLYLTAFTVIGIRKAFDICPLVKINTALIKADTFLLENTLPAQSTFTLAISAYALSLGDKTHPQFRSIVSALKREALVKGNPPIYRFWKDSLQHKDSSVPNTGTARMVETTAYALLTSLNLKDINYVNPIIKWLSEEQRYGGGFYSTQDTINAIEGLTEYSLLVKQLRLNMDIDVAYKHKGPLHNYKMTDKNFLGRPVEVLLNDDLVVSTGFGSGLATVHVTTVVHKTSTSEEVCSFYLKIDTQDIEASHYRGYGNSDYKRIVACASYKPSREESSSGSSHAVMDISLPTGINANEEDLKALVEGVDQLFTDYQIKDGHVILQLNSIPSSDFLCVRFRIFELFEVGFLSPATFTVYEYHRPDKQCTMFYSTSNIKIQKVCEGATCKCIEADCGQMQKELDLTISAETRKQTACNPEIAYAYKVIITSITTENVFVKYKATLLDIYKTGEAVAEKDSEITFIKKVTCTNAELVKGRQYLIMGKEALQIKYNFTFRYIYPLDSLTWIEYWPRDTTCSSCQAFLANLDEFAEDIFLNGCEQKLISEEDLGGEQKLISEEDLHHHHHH
Method: as §1, §2

Human C5 [2] = biological target: T1, Human C5; test: SPR, mAb captured by anti-hFc, 25C
Method: as §1, §2

Row | Binder | 100 nM Human C5 Bound (RU) (Human C5 [1]) | Kd (Human C5 [1]) [nM] | koff (Human C5 [1]) [s⁻¹] | kon (Human C5 [1]) [M⁻¹ s⁻¹] | t½ (Human C5 [1]) [min] | 100 nM monkey C5-mmh Bound (RU) (monkey C5-mmh) | Kd (monkey C5-mmh) [nM] | koff (monkey C5-mmh) [s⁻¹] | kon (monkey C5-mmh) [M⁻¹ s⁻¹] | t1/2 (monkey C5-mmh) [min] | 100 nM Human C5 Bound (RU) (Human C5 [2]) | Kd (Human C5 [2]) [nM] | koff (Human C5 [2]) [s⁻¹] | kon (Human C5 [2]) [M⁻¹ s⁻¹] | t½ (Human C5 [2]) [min]
1 | H4H12164P (antibody, human IgG4, V domains shown) VH: EVQLVESGGGLVRSGGSLRLSCAASGFTFNRYAMTWVRQAPGKGLEWVSAISGSGSSTYYTDSVKGRFTISRDNSKNSVDLQMHSLRVEDTAIYYCARGTTVTTGYGMDVWGQGTTVTVSS VL: DIQMTQSPSSLSASVGDRVTFTCQASQDITNSLNWYQQKPGRAPKLLIYDASYLKAGVPSRFSGSGSGTDFTFTISSLQPEDIATYYCQQYDDLPYTFGQGTKLEIK | 140 | 0.323 | 0.000128 | 396000 | 90 | 66 | 12 | 0.00153 | 127000 | 8 | 103 | 0.302 | 8.84e-05 | 292000 | 131
2 | H4H12168P (antibody, human IgG4, V domains shown) VH: QVQLVESGGGVVQPGGSLRLSCAASGFTFGGHAMHWVRQAPGKGLEWLAVISSDGSNKQYADSVKGRFTISRDNPKNTLYLQMNSLRVGDTAIYYCAKEVAPRYYYYGLDVWGQGTTVTVSS VL: DIQMTQSPSSLSASVGDRVTITCRASQDISNFLAWYQQKPGKVPKLLIYTASTLQSGVPSRFSGSGSGTDFTLTVSSLQPEDVATYYCQKYAGALTFGPGTKVDIK | 12 | 18.5 | 0.000464 | 25000 | 25 | 86 | 0.66 | 0.000114 | 173000 | 101 | 113 | 0.112 | 4.75e-05 | 423000 | 243
3 | H4H12169P (antibody, human IgG4, V domains shown) VH: EVQLVESGGGLAQPGGSLRLSCAASGFTFRSYAMSWVRQAPGKGPEWVSGIGGNGVTTYYADSVKGRFTISRDNSKNTLFLQMNSLRAEDTAVYYCVQGGLGGYFTGYWGQGTLVTVSS VL: DIQMTQSPSSLSASVGDRVTITCRASQSISTYLNWYQQNPGKAPKLLIFDASSLQSGVPSRFSGSGSGTDFTLTIRGLQPEDFATYYCQQSYSAPLTFGGGTKVEIK | 65 | 3.06 | 0.000352 | 115000 | 33 | 22 | 27.8 | 0.00455 | 164000 | 3 | 18 | 1.96 | 0.00044 | 224000 | 26
4 | H4H11686N (antibody, human IgG4, V domains shown, also called H2M11686N) VH: QVQLVESGGGLVKPGGSLRLSCAASGFTFSDYYMSWIRQAPGKGLEWVSYISSSGNTIKYADSMKGRFTISRDNAKKSLFVEMNSLRAEDTAVYYCARYKSSSDYFDHWGQGTLVTVSS VL: EIVLTQSPATLSLSPGERATLSCRASQSVRSYLAWYQQKPGQAPRLLIYDASNRATAIPARFSGSGSGTDFTLTISSLEPEDLAVYYCQQSGNWPLTFGGGTKVEIK | 406 | 0.469 | 0.000156 | 333000 | 74 | 247 | 3.11 | 0.000489 | 157000 | 24 | 341 | 0.15 | 3.31e-05 | 220000 | 349
5 | H4H12170P (antibody, human IgG4, V domains shown) VH: QVQLVESGGGVVQPGRSLRLSCAASGFTFSGYGMHWVRQAPGKGLEWVALIWLDGSNDYYADSVKGRFTISRDNSKNTLYLQMNRLRAEDTAVYYCARDGPVAAIPDYWGQGTLVTVSS VL: DIQMTQSPSTLSASVGDRVTITCRASQSISRWLAWYQLKPGKAPKLLIYKASSLESGVPSRFSGSGSGTDFTLTISSLQPDDFATYYCQQYNTYSYTFGQGTKLEIK | 55 | 1.4 | 0.000415 | 297000 | 28 | 92 | 0.199 | 5.21e-05 | 262000 | 222 | 119 | 0.129 | 6.79e-05 | 525000 | 170
6 | H4H12177P2 (antibody, human IgG4, V domains shown) VH: EVQLVESGGGVVQRGESLRLSCSASDFIFKDYAMYWVRQIPGKGLEWISLISGDGDTTWYGDSVKGRFTISRDNNENSLFLQMNDLRTEDTAMYYCARDMGWNFFQLQYWGQGTLVTVSS VL: not shown | 37 | 13.1 | 0.000578 | 44200 | 20 | 32 | 21.5 | 0.000992 | 46200 | 12 | 60 | 0.959 | 6.29e-05 | 65600 | 184
7 | H4H12183P2 (antibody, human IgG4, V domains shown) VH: QVQLQESGPALVKPSQTLSLTCTVSGGSIIRGSTYWSWVRQFPGKGLEWIGYSYYSGTAYYNPSLESRATISVDTSKNQFSLNLKSVTAADTAVYYCTREIGVAGLFDIWGQGTLVTVSS VL: not shown | 30 | 5.81 | 0.00025 | 43000 | 46 | 23 | 10.1 | 0.000494 | 48800 | 23 | 50 | 0.163 | 2.7e-05 | 166000 | 427
8 | H4H12166P2 (antibody, human IgG4, V domains shown, human IgG4 Fc with S108P hinge mutation) VH: QVQLQESGPGLVKPSETLSLTCTVSGDSVSSSYWTWIRQPPGKGLEWIGYIYYSGSSNYNPSLKSRATISVDTSKNQFSLKLSSVTAADTAVYYCAREGNVDTTMIFDYWGQGTLVTVSS VL: AIQMTQSPSSLSASVGDRVTITCRASQGIRNDLGWYQQKPGKAPKLLIYAASSLQSGVPSRFAGRGSGTDFTLTISSLQPEDFATYYCHQDFNYPWTFGQGTKVEIK | 110 | 1.29 | 0.00123 | 950000 | 9 | 71 | 10.5 | 0.00316 | 300000 | 4 | 95 | 0.438 | 0.000361 | 826000 | 32
